Results as given in patent US20090166224A1.
Where two headings read alike, the source gives them in different places.

Assays:
[1] = molecular target: IG ALPHA-1 CHAIN C REGION (human) (UniProt P01876); assay: human serum on Con A/WGA/Jacalin column, lectin-specific displacer fraction, LC-MS/MS; grade = SEQUEST rank group (+ = ranks 1-5, ++++ = 16-20)
[2] = molecular target: ALPHA-2-HS-GLYCOPROTEIN (human) (UniProt P02765); assay: as above
SERO… (human) [3] = molecular target: SERO… (human) (UniProt P02787); assay: as above
[4] = molecular target: Alpha-2HS-glycoprotein in neuraminidase-treated serum (human) (UniProt P02765); assay: neuraminidase-treated serum on M-LAC column, displacer fraction, LC-MS/MS; smaller rank = more abundant
[5] = molecular target: Beta-2-glycoprotein in neuraminidase-treated serum (human) (UniProt P02749); assay: as above
[6] = molecular target: Alpha-1-acid-glycoprotein in neuraminidase-treated serum (human) (UniProt P02763); assay: as above
[7] = molecular target: asialotransferrin (human) (UniProt P02787); assay: as above
[8] = molecular target: asialotransferrin (human) (UniProt P02787); assay: neuraminidase-treated serum on M-LAC column, displacer fraction, extracted ion chromatogram of peptide …
[9] = molecular target: Alpha-1-acid-glycoprotein (human) (UniProt P02763); assay: human serum on M-LAC column, displacer fraction, extracted ion chromatogram of peptide …
HAPTOGLOBIN-2 (human) [10] = molecular target: HAPTOGLOBIN-2 (human) (UniProt P00738); assay: as above
[11] = molecular target: Beta-2-glycoprotein (human) (UniProt P02749); assay: as above
[12] = molecular target: ALPHA-2-HS-GLYCOPROTEIN (human) (UniProt P02765); assay: as above
SERO… (human) [13] = molecular target: SERO… (human) (UniProt P02787); assay: as above
[14] = molecular target: IG ALPHA-1 CHAIN C REGION (human) (UniProt P01876); assay: human serum on M-LAC column, Jacalin displacer fraction, LC-MS/MS; smaller rank = more abundant
[15] = molecular target: Pregnancy zone protein in fucosidase-treated serum (human) (UniProt P20742); assay: fucosidase-treated serum on M-LAC column, displacer fraction, extracted ion chromatogram of peptide … (so in the source)
… ZONE PROTEIN (human) [16] = molecular target: … ZONE PROTEIN (human) (UniProt P20742); assay: human serum on Con A/WGA/Jacalin column, lectin-specific displacer fraction, LC-MS/MS; grade = SEQUEST rank group (+ = ranks 1-5, ++++ = 16-20)
[17] = molecular target: Pregnancy zone protein in fucosidase-treated serum (human) (UniProt P20742); assay: fucosidase-treated serum on M-LAC column, displacer fraction, LC-MS/MS; smaller rank = more abundant
… ZONE PROTEIN (human) [18] = molecular target: … ZONE PROTEIN (human) (UniProt P20742); assay: human serum on M-LAC column, displacer fraction, LC-MS/MS; smaller rank = more abundant
CERULOPLASMIN (human) = CERULOPLASMIN (human) (UniProt P00450); assay: human serum on Con A/WGA/Jacalin column, lectin-specific displacer fraction, LC-MS/MS; grade = SEQUEST rank group (+ = ranks 1-5, ++++ = 16-20)
[19] = molecular target: APOLIPOPROTEIN A-I (human) (UniProt P02647); assay: as above
[20] = molecular target: Inter-alpha-trypsin inhibitor in fucosidase-treated serum (human); assay: fucosidase-treated serum on M-LAC column, displacer fraction, LC-MS/MS; smaller rank = more abundant
[21] = molecular target: Inter-alpha-trypsin inhibitor in fucosidase-treated serum (human); assay: fucosidase-treated serum on M-LAC column, displacer fraction, extracted ion chromatogram of peptide …
[22] = molecular target: Inter-alpha-trypsin inhibitor (human); assay: human serum on M-LAC column, displacer fraction, LC-MS/MS; smaller rank = more abundant
HAPTOGLOBIN-2 (human) [23] = molecular target: HAPTOGLOBIN-2 (human) (UniProt P00738); assay: human serum on M-LAC column, displacer fraction, extracted ion chromatogram of peptide …; remark: listed apart in the source
[24] = molecular target: Inter-alpha-trypsin inhibitor (human); assay: as above

Sequence of UniProt P02765 (P02765 19-300 limits assumed, chain 1 of 2): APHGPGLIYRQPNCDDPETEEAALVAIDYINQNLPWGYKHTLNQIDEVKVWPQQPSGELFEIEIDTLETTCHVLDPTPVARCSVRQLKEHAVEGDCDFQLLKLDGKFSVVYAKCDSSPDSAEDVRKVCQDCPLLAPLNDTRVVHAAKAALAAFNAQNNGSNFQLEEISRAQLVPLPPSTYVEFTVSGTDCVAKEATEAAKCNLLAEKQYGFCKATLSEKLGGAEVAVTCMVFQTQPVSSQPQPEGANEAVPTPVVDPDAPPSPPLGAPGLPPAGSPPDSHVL
Sequence of UniProt P02765 (P02765 341-367 limits assumed, chain 2 of 2): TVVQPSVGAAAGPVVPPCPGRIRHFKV
Sequence of HAPTOGLOBIN-2 (human) (P00738 19-406 limits assumed): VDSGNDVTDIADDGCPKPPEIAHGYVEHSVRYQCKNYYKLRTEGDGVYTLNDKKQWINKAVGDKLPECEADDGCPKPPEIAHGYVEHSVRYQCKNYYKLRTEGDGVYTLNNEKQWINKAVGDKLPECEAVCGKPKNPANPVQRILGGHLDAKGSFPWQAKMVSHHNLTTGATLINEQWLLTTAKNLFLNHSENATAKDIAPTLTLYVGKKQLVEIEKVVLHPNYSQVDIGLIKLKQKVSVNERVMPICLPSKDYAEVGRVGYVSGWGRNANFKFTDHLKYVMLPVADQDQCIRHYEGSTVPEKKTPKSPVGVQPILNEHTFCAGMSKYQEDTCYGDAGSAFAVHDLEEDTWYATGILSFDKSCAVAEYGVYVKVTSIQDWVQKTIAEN
Sequence of asialotransferrin (human) (P02787 20-698 limits assumed): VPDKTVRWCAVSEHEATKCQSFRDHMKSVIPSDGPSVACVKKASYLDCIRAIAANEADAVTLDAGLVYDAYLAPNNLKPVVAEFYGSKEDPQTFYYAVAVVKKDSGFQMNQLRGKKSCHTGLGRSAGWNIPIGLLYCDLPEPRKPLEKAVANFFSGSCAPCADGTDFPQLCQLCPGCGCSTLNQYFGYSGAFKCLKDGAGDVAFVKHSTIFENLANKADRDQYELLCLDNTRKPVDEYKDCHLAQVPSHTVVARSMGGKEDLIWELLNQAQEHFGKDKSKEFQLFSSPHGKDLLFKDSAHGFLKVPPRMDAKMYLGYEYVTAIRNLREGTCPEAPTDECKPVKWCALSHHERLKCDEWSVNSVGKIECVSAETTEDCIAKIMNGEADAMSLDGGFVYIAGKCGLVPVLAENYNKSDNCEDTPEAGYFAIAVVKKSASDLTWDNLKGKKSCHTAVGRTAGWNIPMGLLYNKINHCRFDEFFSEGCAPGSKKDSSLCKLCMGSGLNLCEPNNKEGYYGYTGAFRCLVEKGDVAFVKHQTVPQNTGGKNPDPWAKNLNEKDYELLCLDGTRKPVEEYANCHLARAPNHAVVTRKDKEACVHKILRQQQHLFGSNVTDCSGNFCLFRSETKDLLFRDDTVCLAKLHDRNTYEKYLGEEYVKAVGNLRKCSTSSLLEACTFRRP
Sequence of SERO… (human) (P02787 20-698 limits assumed): as above
Sequence of Pregnancy zone protein in fucosidase-treated serum (human) (P20742 26-1482 limits assumed): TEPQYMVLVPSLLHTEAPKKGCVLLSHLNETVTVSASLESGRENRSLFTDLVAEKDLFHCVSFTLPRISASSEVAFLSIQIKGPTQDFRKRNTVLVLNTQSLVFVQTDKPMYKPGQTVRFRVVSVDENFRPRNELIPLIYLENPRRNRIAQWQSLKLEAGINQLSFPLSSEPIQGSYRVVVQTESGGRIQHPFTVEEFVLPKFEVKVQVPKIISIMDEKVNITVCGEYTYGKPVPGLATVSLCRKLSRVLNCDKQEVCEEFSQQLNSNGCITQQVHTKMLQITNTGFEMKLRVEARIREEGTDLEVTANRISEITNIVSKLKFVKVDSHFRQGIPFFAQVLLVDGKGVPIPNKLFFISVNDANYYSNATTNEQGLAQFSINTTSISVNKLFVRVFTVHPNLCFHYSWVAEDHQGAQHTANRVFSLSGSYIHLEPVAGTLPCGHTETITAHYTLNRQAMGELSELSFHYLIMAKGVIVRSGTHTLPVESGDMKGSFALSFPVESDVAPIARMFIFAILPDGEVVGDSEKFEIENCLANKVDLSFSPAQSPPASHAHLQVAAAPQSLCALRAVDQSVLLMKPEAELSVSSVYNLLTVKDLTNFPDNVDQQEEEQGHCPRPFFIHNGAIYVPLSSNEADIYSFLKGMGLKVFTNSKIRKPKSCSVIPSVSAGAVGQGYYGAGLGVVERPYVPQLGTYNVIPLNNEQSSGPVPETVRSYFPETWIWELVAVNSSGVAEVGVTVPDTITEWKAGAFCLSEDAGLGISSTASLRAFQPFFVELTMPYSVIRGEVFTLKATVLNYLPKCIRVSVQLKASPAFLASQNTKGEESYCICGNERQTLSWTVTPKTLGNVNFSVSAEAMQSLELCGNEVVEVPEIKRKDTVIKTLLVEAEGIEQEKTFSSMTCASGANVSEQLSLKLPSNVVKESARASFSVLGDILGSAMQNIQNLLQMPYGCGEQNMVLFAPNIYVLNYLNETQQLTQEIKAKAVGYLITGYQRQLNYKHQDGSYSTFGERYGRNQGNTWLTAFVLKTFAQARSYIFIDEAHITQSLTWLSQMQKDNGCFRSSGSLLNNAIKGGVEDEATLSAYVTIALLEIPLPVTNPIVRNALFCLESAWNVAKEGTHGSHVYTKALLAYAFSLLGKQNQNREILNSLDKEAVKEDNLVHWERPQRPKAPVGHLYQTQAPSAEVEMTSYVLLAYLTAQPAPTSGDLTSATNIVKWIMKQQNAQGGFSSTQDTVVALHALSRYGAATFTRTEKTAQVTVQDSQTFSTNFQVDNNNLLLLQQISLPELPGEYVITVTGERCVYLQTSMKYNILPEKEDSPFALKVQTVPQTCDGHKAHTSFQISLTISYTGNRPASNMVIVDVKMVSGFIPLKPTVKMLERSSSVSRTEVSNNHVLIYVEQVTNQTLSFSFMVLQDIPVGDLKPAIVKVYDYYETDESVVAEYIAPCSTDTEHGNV
Sequence of … ZONE PROTEIN (human) (P20742 26-1482 limits assumed): as above

Jacalin lectin, agarose-bound (from UniProt P18670 1-133; P18671 1-20)
SEQUEST ranking (relative abundance in the Jacalin displacement fraction) [1]: 1 to 5 rank
SEQUEST ranking (relative abundance in the Jacalin displacement fraction) [2]: 6 to 10 rank
SEQUEST ranking (relative abundance in the Jacalin displacement fraction) (SERO… (human) [3]): 16 to 20 rank
SEQUEST rank in displacer fraction [4]: 7
SEQUEST rank in displacer fraction [5]: 23
SEQUEST rank in displacer fraction [6]: 27
SEQUEST rank in displacer fraction [7]: 1
peptide peak area in displacer fraction ([8]; peptide at M/Z 530.2): 2.4e+07 counts
peptide peak area in displacer fraction ([8]; peptide at M/Z 790.1): 8.3e+06 counts
peptide peak area in displacer fraction [9]: 9.7e+06 counts
peptide peak area in displacer fraction (HAPTOGLOBIN-2 (human) [10]): 1e+07 counts
peptide peak area in displacer fraction [11]: 2.6e+06 counts
peptide peak area in displacer fraction [12]: 4e+06 counts
peptide peak area in displacer fraction (SERO… (human) [13]; peptide at M/Z 530.2): 1.9e+07 counts
peptide peak area in displacer fraction (SERO… (human) [13]; peptide at M/Z 790.1): 7e+06 counts
SEQUEST rank in displacer fraction [14]: 1

wheat germ agglutinin (WGA), agarose-bound (from UniProt P10968 27-197)
peptide peak area in displacer fraction [15]: 5.2e+06 counts
SEQUEST ranking (relative abundance in the WGA displacement fraction) (… ZONE PROTEIN (human) [16]): 6 to 10 rank
SEQUEST ranking (relative abundance in the WGA displacement fraction) [2]: 11 to 15 rank
SEQUEST rank in displacer fraction [17]: 17
SEQUEST rank in displacer fraction (… ZONE PROTEIN (human) [18]): 7
SEQUEST rank in displacer fraction [6]: 23
peptide peak area in displacer fraction [9]: 1.29e+08 counts
peptide peak area in displacer fraction (HAPTOGLOBIN-2 (human) [10]): 2.36e+08 counts
peptide peak area in displacer fraction [11]: 1.8e+06 counts
peptide peak area in displacer fraction [12]: 1.7e+06 counts
peptide peak area in displacer fraction (SERO… (human) [13]; peptide at M/Z 530.2): 7.7e+06 counts
peptide peak area in displacer fraction (SERO… (human) [13]; peptide at M/Z 790.1): 5e+06 counts

Concanavalin A (Con A), agarose-bound (from UniProt P02866 30-281)
peptide peak area in displacer fraction [15]: 1.6e+07 counts
SEQUEST ranking (relative abundance in the Con A displacement fraction) (… ZONE PROTEIN (human) [16]): 16 to 20 rank
SEQUEST ranking (relative abundance in the Con A displacement fraction) (CERULOPLASMIN (human)): 16 to 20 rank
SEQUEST ranking (relative abundance in the Con A displacement fraction) (SERO… (human) [3]): 1 to 5 rank
SEQUEST ranking (relative abundance in the Con A displacement fraction) [19]: 11 to 15 rank
SEQUEST rank in displacer fraction [20]: 13
SEQUEST rank in displacer fraction [17]: 25
peptide peak area in displacer fraction [21]: 0 counts
SEQUEST rank in displacer fraction (… ZONE PROTEIN (human) [18]): 34
SEQUEST rank in displacer fraction [22]: 22
SEQUEST rank in displacer fraction [4]: 31
SEQUEST rank in displacer fraction [5]: 24
SEQUEST rank in displacer fraction [6]: 96
SEQUEST rank in displacer fraction [7]: 2
peptide peak area in displacer fraction [9]: 9.2e+06 counts
peptide peak area in displacer fraction (HAPTOGLOBIN-2 (human) [10]): 3.9e+07 counts
peptide peak area in displacer fraction [11]: 3.5e+06 counts
peptide peak area in displacer fraction [12]: 2.6e+06 counts
peptide peak area in displacer fraction (SERO… (human) [13]; peptide at M/Z 530.2): 2e+07 counts
peptide peak area in displacer fraction (SERO… (human) [13]; peptide at M/Z 790.1): 7.8e+06 counts
peptide peak area in displacer fraction (HAPTOGLOBIN-2 (human) [23]): 4e+07 counts
peptide peak area in displacer fraction [24]: 500000 counts
